{"source": "the RNAGym collection of RNA variant scans (doi:10.7554/elife.90254)", "parents": {"B1": {"name": "LINE1-mini (parent)", "chain": "GGCAGAGCUCAACACAGCGUGGCAAAGUGGCUGUGGCUAGACUGCC"}}}
{"variants_of": "B1", "assay": "self-cleavage, relative activity (ratio to wild type); higher = more cleavage; in vitro, sequencing; the parent is a self-cleaving ribozyme"}
{"variant": "CGCAGAGCUCAACACAGCGUGGCAAAGUGGCUGUGGCAAGACUGCC", "self-cleavage": 0.05}
{"variant": "GGCAGAGCUCAACACAGCGUGGUAAAGUGGCUGUGGCUAGAAUGCC", "self-cleavage": 0.25}
{"variant": "GGCAGAGCUCAGCACAGCGUUGCAAAGUGGCUGUGGCUAGACUGCC", "self-cleavage": 0.03}
{"variant": "GGCAGAGCUCAACACAGCGUGGCUAAGUGGCUGUGGCUAGACAGCC", "self-cleavage": 0.3}
{"variant": "GGCAGAGCUCAACACAGCGUGGCAAAGUGGCUGUGGCUAGACUAAC", "self-cleavage": 0.07}
{"variant": "GGCAGAGCUCAACACAGCGUGGCAAAGGGACUGUGGCUAGACUGCC", "self-cleavage": 0.9}
{"variant": "GGCAGAGCUCAACACAGCGUGGCAACGUGGCCGUGGCUAGACUGCC", "self-cleavage": 0.24}
{"variant": "GGCAGAGCUAAACAAAGCGUGGCAAAGUGGCUGUGGCUAGACUGCC", "self-cleavage": 0.04}
{"variant": "GGCAGAGCUCAACACAGCGUGGCAAAGUGGAUGAGGCUAGACUGCC", "self-cleavage": 0.05}
{"variant": "GGCAGAGCUCAACAUAGCGUGGCAAAGUGGCUGUGGCUAGGCUGCC", "self-cleavage": 0.25}
{"variant": "GGCAGAGCUCAACACAGCGUGGCAAAGUGGCUGUGGAUAGACCGCC", "self-cleavage": 0.05}
{"variant": "GGCAGAGCUCAACCCAGCGUGGCAAAGUGGCUGUAGCUAGACUGCC", "self-cleavage": 0.09}
{"variant": "GGCAGAGCUCAACACAUCAUGGCAAAGUGGCUGUGGCUAGACUGCC", "self-cleavage": 0.78}
{"variant": "GGCAGCGCUCAACACAGCGAGGCAAAGUGGCUGUGGCUAGACUGCC", "self-cleavage": 0.52}
{"variant": "GGCAGAGCUCAACUCAGCGUGGCAAAGUGGCUGUGCCUAGACUGCC", "self-cleavage": 0.08}
{"variant": "GGCAGAGCCCAACACAGCGUGGCAAAGUGGAUGUGGCUAGACUGCC", "self-cleavage": 0.02}
{"variant": "GGCAGAGCUCAACACAGCGUGGCAAAGUGGCUGUGGGUAGACUGAC", "self-cleavage": 0.03}
{"variant": "GGCAGAGCCCAACACAGCGUGGCAAAGUGGCUGUGGCUAGAGUGCC", "self-cleavage": 0.03}
{"variant": "GGCAGAGCUCACCACAGCGUGACAAAGUGGCUGUGGCUAGACUGCC", "self-cleavage": 0.03}
{"variant": "GGCAGAGCUCAACCCGGCGUGGCAAAGUGGCUGUGGCUAGACUGCC", "self-cleavage": 0.1}
{"variant": "GGCAGAGCUCAACACAGCGCGGCAAAGUGGCUGUGGCCAGACUGCC", "self-cleavage": 0.22}
{"variant": "GGCAGAGCUCAACACAGCGUGGCAAAGUGGCUGUGGCUUGACUUCC", "self-cleavage": 0.12}
{"variant": "GGCAGAGCUCAACACAGCGUGGCAAAGUGGCUGUGGUUAGACUGAC", "self-cleavage": 0.06}
{"variant": "GGCAGAGCUCAACACAGCGUGGCAAUGUGUCUGUGGCUAGACUGCC", "self-cleavage": 1.25}
{"variant": "UGCAGAGCUCAACACAGCGUGGCAAAGUGGCUGUGGUUAGACUGCC", "self-cleavage": 0.04}
{"variant": "GGCAGAGCUCAACACCGCGUGGCAAAGUGGCUGUGGCUAGACUUCC", "self-cleavage": 0.07}
{"variant": "GGCAGAGCACAACACAGCGUGGCAAAGUGGCUGUGGCUAGACUGCA", "self-cleavage": 0.17}
{"variant": "GGCAGAGCUCAACACAGCGUGGCAAAGUGACUGUCGCUAGACUGCC", "self-cleavage": 0.08}
{"variant": "GGCAGAGCUCAUCACAGCGUGGCAAUGUGGCUGUGGCUAGACUGCC", "self-cleavage": 0.28}
{"variant": "GGCAGAGCUCAACACAGAGUGGGAAAGUGGCUGUGGCUAGACUGCC", "self-cleavage": 0.76}
{"variant": "GGCAGAGCUCAACACAGCCUGGCAAAGUGGCUGUGGCUAGACUGCA", "self-cleavage": 0.52}
{"variant": "GGCAGAGCUAAACACAGCGUGGCAAAGUGGCUGUGGCUAGCCUGCC", "self-cleavage": 0.04}
{"variant": "GGCAGAGCUCAACACUGCGUGGCAAAGUGGCUGUGGCUAGACUGCG", "self-cleavage": 0.08}
{"variant": "GGCAGAGCUCAACAUAGCGUGGCAAAGUGGCUGUGGCUAGACUGCA", "self-cleavage": 0.92}
{"variant": "GGCAGAGCUCACCACAGCGUGGCAAAGUGGCUGUGGCUAGACUGCU", "self-cleavage": 0.02}
{"variant": "GGCAGAGCUCAACACAGCGUGGCGAAGUGGCUGUGGCUAGACCGCC", "self-cleavage": 0.2}
{"variant": "GGCAGAGCUCAAUACAGCGUGGCAAAGAGGCUGUGGCUAGACUGCC", "self-cleavage": 0.49}
{"variant": "GGCAGAGCUAAACACAGCGUGGCAAUGUGGCUGUGGCUAGACUGCC", "self-cleavage": 0.06}
{"variant": "GGCAGAGCUCAACACAGCGUGGCAAAGUGGUUGUGGCUAGAUUGCC", "self-cleavage": 0.09}
{"variant": "GGCAGAGCUCAAAACAGCGUGGCAAAGUGGCUGUGACUAGACUGCC", "self-cleavage": 0.23}
{"variant": "GGCAGAGCUCAACACAGCGUGGCAAAGUGGCUGUGGCUAGACAGAC", "self-cleavage": 0.08}
{"variant": "GGCAGAGCUCAACACAGCGUGGCAAAGUGGCUGUGGUUAGGCUGCC", "self-cleavage": 0.04}
{"variant": "GGCAGAUCUCAACUCAGCGUGGCAAAGUGGCUGUGGCUAGACUGCC", "self-cleavage": 0.11}
{"variant": "GGCAGAGCUGAACACAGCGUGGCAAAGUGGCUGUGGCUAGACUUCC", "self-cleavage": 0.04}
{"variant": "GGCAGAGCUCAACACAGCGUCGCAAAGUGGCUCUGGCUAGACUGCC", "self-cleavage": 0.05}
{"variant": "GGCAGAGCGCAACACAGCGUGGCAAAGUGGCUGUGGCUAGAGUGCC", "self-cleavage": 0.06}
{"variant": "GGCAGAGCCCAACACAGCGUGGCAGAGUGGCUGUGGCUAGACUGCC", "self-cleavage": 0.04}
{"variant": "GGCAGGCCUCAACACAGCGUGGCAAAGUGGCUGUGGCUAGACUGCC", "self-cleavage": 0.14}
{"variant": "GGCAGAGCUCAACAUAGCGUGGCAAAGUGGCUGUGGUUAGACUGCC", "self-cleavage": 0.11}
{"variant": "GGCAGAGCUCAACACAGCGUGCCAAAGUGGCUGUGGCUAGACUGCU", "self-cleavage": 0.65}
{"variant": "GGCAGUGCUCAACGCAGCGUGGCAAAGUGGCUGUGGCUAGACUGCC", "self-cleavage": 0.1}
{"variant": "GGAAGAACUCAACACAGCGUGGCAAAGUGGCUGUGGCUAGACUGCC", "self-cleavage": 0.97}
{"variant": "GGCAGAGCUCAACACAGCGUGGCAAAGUAGCUGUGGCUAGGCUGCC", "self-cleavage": 0.32}
{"variant": "GGCAGAGCUCUACAUAGCGUGGCAAAGUGGCUGUGGCUAGACUGCC", "self-cleavage": 0.17}
{"variant": "GGCAGAGCUCAACACAGCGUGGCCAAGUGGCUGUAGCUAGACUGCC", "self-cleavage": 0.09}
{"variant": "GGCAGAGCUCAACACAGCGUGGCAAAGUGGCUCUGGCUAGACGGCC", "self-cleavage": 0.01}
